This data set addresses T1, Dnr (Pseudomonas aeruginosa PAO1) (UniProt Q51441).
T1 sequence: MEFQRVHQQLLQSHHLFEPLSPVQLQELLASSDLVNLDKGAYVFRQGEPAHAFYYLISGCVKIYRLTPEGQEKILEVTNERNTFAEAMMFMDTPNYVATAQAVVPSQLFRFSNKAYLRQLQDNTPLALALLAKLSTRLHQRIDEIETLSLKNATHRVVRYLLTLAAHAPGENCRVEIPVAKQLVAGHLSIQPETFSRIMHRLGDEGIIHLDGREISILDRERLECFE
Description: EMSA.

Turning to “GGCGGCTGACTCCGATGCAATGGTGGGGGAGCAATGCATCGGGGGGATGCCCTGATCATCGCAGTCCCTTGCTGGATCACAGGCATGACAGGGAAAACGGCGCAGAACCTGTCCTTGGCGATCCCTCTGGTCCGTCACTGGCGACGAACTACAAAAGACGCTAGAACAGGTCTATGGATTTGCAAAATAAAATTTTCGTTGGACTCCC (double strand) [hcp3 promoter fragment]”, the binding entry is on record as “no binding”.

(Values after publication PMC9769707.)
